Reference: US20140031528A1 (NATIONAL UNIVERSITY CORPORATION UNIVERSITY OF TOYAMA, published 2014)

Target: human insulin (human, UniProt P01308 25-54; P01308 90-110)
Assay: ELISA, recombinant antibodies from 293FT culture
Procedure: The full lengths of the guinea pig γ chain, κ chain, and λ chain gene expression units amplified in the above experiments were genetically introduced into 293FT cells and the cells were cultured for two days to bring about the secretion of recombinant guinea pig antibodies in the cell culture. The ability to bind human insulin of the recombinant guinea pig monoclonal antibodies obtained from the antigen specific and nonspecific plasma cells was examined by the ELISA method (FIG. 9).

Chain of human insulin (P01308 25-54 limits assumed, chain 1 of 2): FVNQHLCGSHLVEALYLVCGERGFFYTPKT
Chain of human insulin (P01308 90-110 limits assumed, chain 2 of 2): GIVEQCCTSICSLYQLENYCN

binding result: binds
B1: guinea pig monoclonal antibody to human insulin, Sample No. 5 (antibody, V domains shown)
VH: QVQLQESGPGLVKPSETLSLTCKVSGFSLMDYSVSWIRQAPGEGLEWIGVIWSSGSTDYNSTFKSRVGMSRDTSKSQVSITLRSLSSEDTAVYYCARAQYFDVWGAGTLVTVSS
VL: QIVLTQSPASLAASPGQKVTITCTASSSVNNNFFHWYQQKPGASPTLLIYRTSRLASGVPARFSGSGSGTSYSLTISSMEGEDVATYYCLQSNSYTFGAGTRLEIK
notes: Recombinant guinea pig IgG (γ/κ) secreted by 293FT cells
